Sequences and labels used below:
B1: Fab ACI-7067-1113D10-Ab1 (Fab, V domains shown)
VH: EVQLVESGGGLVQPKGSLKLSCAASGFTFNTYALHWVRQAPGKGLEWVARIRSKSSNYATYYADSVKDRFTISRDDSQSMLYLQMNNLKTEDTGMYYCVRGGVSPFDYWGQGTTLTVSS
VL: QIVLTQSPAIMSASPGEKVTMTCSASSSVSYMHWYQQKSGTSPKRWIYDTSKLASGVPARFSGSGSGTSYSLTISSMEAEDSATYYCQQWSNNPPTFGGGTKLEIK
B2: Fab ACI-7067-1108H1-Ab1 (Fab, V domains shown)
VH: EVKLVESGGGLVQPGGSMKLSCTASGFTFSDAWMNWVRQSPEKGLEWVAEIRNKAHNHATNYAESVKGRFTISGDDSKSSVYLQMNNLRAEDTGIYYCTIYSFWGQGTLVTVSA
VL: SIVMTQTPKFLLVSAGDRVTITCKASQSVTNYVAWYHQKPGQSPKLLIYSASNRYSGVPDRFTGSGYGTDFTFTINTVQTEDLAVYFCQQDYRIPYTFGGGTKLEIK
B3: Fab ACI-7067-1108B11-Ab2 (Fab, V domains shown)
VH: EVQLVESGGGLVQPKGSLKLSCAASGFTFNTYAMHWVRQAPGKGLEWVARIRSKGSNYATNYADSVKDRFTISRDDSQSMLYLQMNNLKTEDTAMYYCVRGHGSSYFSYWGQGTLVTVSA
VL: QIVLTQSPAIMSASPGERITMTCSANSSVTYMHWYQQKSGTSPKRWIYDTSNLASGVPARFSGSGSGTSYSLTISSMEAEDAATYYCQQWKSHPPTFGAGTKLELK
B4: Fab ACI-7067-1101C8-Ab2 (Fab, V domains shown)
VH: EVQLVESGGGLVQPKGSLKLSCAASGFSFNIYAMNWVRQAPGKGLEWVARIRSKSNNYATYYADSVKDRFTISRADSESMLYLQMNNLKTEDTAMYYCVRVGLRFYAMDYWGQGTSVTVSS
VL: DVLMTQTPLSLPVSLGDQASISCRSSQSIVHSNGNTYLEWYLQKPGQSPKLLIYKVSNRFSGVPDRFSGSGSGTDFTLKISRVEAEDLGVYYCFQGSQGPLTFGAGTKLELK
B5: ACI-1113D10_4317A4 (bispecific antibody, V domains shown)
VH 1: B1 VH
VL 1: B1 VL
VH 2: EVQLQQSGAELVRPGASVKLSCTASGFNIKDDYMHWVKQRPEQGLEWIGWIDPENGDTEYASKFQGKATMTADTSSNTAYLQLSSLTSEDTAVYYCKTWGTTQALFPYWGQGTLVTVSA
VL 2: DIVMTQSQKFMYTSVGDRVSITCKASQNVGNAVGWYQQKAGQSPKLLIHSASNRYTGVPDRFTGTGSGTDFTLTINNMQSEDLADYFCQQYRSYPLTFGAGTKLELK
notes: biparatopic; Arm A ACI-7067-1113D10-Ab1, Arm B ACI-7088-4317A4-Ab1; engineered constant domains not specified
B6: ACI-4F3_4317A4 (bispecific antibody, V domains shown)
VH 1: EVQLQQSGPELVKPGASVKISCKASGYTFTDYYMNWVKQSHGKSLEWIGDINPNTGTNSYNQKFKGRASLTVDKFSSAAYMELRSLTSEDSAVYYCARTGYGDPISSYYYALDYWGQGTSVTVSS
VL 1: DIVMSQSPSSLAVSAGEKVTMSCKSSQSLLNSRTRKNYLAWYQQKPGQSPKLLIYWASTRESGVPDRFTGSGSGTDFTLTISSVQAEDLAVYYCKQSYNLWTFGGGTKLEIK
VH 2: B5 VH 2
VL 2: B5 VL 2
notes: biparatopic; Arm A ACI-8033-4F3-Ab1, Arm B ACI-7088-4317A4-Ab1; engineered constant domains not specified
B7: ACI-2503C6_1101C8 (bispecific antibody, V domains shown)
VH 1: DVQLQESGPGLVKPSQSLSLTCSVTGYSITSGYYWNWIRLFPGNKLEWLGYINYDGSNNFNPSLKNRISITRDTSKNQFFLKLNSVTSEDTATYFCLRGDWDWGQGTLVTVSA
VL 1: not shown
VH 2: B4 VH
VL 2: B4 VL
notes: biparatopic; Arm A ACI-7079-2503C6-Ab1, Arm B ACI-7067-1101C8-Ab2; engineered constant domains not specified
B8: ACI-1108B11_27D8 (bispecific antibody, V domains shown)
VH 1: B3 VH
VL 1: B3 VL
VH 2: EVQLVESGGGLVQPKGSLKLSCAASGFTFNTYAMNWVRQAPGKGLEWVARIRSKSNNFATYYADSVKDRFTISRDESESMLYLQMNNLKAEDTAMYYCVRSFDYWGQGTTLTVSS
VL 2: DIKMTQSPSSMYASLGERVTITCKASQDINSYLSWFQQKPGKSPKTLIYRAKRLVDGVPSRFSGSGSGQDYSLTISSLEYEDMGIYYCLQYDEFPFTFGSGTKLEIK
B9: ACI-4301D5_3108C10 (bispecific antibody, V domains shown)
VH 1: QVQLQQSGPELVRPGASVKISCKASGYRFTSYYIHWVKQRPGQGLEWIGWIYPGSDNTKHNDKFKGKATLTADTSSSTAYMQLSSLTSEDSAVYFCARDYDVGFGYWGQGTLVTVSS
VL 1: not shown
VH 2: ELQLVESGGGLVRPGGSLKLSCATSGFTFRNYAMSWVRQTPAKRLEWVATISDGGTYTFYSDNVKGRFTISRDNVKNTLYLQMSHLKSEDTAMYYCSRAGSGHWGQGTTLTVSS
VL 2: not shown
B10: ACI-3112H1_1101C8 (bispecific antibody, V domains shown)
VH 1: EVQLQQSGPELVKPGASVKISCKASGYTFSDYFMNWVKQSHGKSLEWIGDINPNNGGSSYIQKFKGKATLTVDKSSTTAYMELRSLTSEDSAVYYCARGSNYAMDSWGQGTSVTVSS
VL 1: B6 VL 1 with N99D
VH 2: B4 VH
VL 2: B4 VL
B11: ACI-4F3_5A12 (bispecific antibody, V domains shown)
VH 1: B6 VH 1
VL 1: B6 VL 1
VH 2: QVHLKQSGADLVRPGASVKLSCKASGYTFTDYYINWVKQRPGQGLEWIARIYPGSGNTYYNEKFKGRATLSAEKSSTTAYMQLSSLTSEDSAVYFCVVGYYGAWGQGTTLTVSS
VL 2: DVVMTQTPLSLPVSLGDQASISCRSSQSLVHSNGKTHLHWYLQKPGQSPKLLIYKVSNRFSGVPDRFSGSGSGTDFTLKISRVEAEDLGVYFCSQSTHVPWTFGGGTKLEIK

Changes are numbered by the printed parent chain.

By Kd is commonly meant a measure of binding affinity in units of concentration. Usually koff stands for the first-order rate constant of dissociation. Read a low koff as a long-lived complex. What is called kon is a measure of how fast the partners come together. Read a high kon as faster complex formation.

One assay addresses T1, alpha-synuclein seeds (UniProt P37840 1-140). As to the kind of experiment: cell-based or functional assay.
For B1, the “aggregation half-time (τ1/2) of seeded alpha-synuclein aggregation, ThT; no antibody 18.0 hours” value (“aggregation half-time … no antibody 18.0 hours” below) worked out at 21 h.

For B2, the “aggregation half-time … no antibody 18.0 hours” value came out at 19.4 h.

Turning to B3, the “aggregation half-time … no antibody 18.0 hours” value is 22.3 h.

With B4, the “aggregation half-time … no antibody 18.0 hours” value came to 26.3 h.

The target of the next assay is T2, alpha-synuclein fibrils (UniProt P37840 1-140). Kind of assay: SPR, captured bAb. How it is done: (§1) Binding affinity of alpha-synuclein biparatopic antibodies to monomeric or fibrillar alpha-synuclein species was performed using a single-cycle kinetics method. The instrument was primed with 1×HBS-P+ buffer (10× stock from GE Healthcare, BR-1003-52 diluted in Milli-Q water). Injections of monomeric alpha-synuclein (Boston Biochem, SP-485), increasing in concentration from 0.62-50 nM prepared from serial 2-fold dilutions, were performed with contact times of 300 sec/injection at a flow rate of 30 μL/min. A dissociation phase of 900 sec followed the final 50 nM injection. Regeneration of the sensor to the goat anti-human antibody layer was achieved using 3 regenerations of 10 mM Glycine pH 1.7. […] Regeneration of the sensor to the goat anti-mouse antibody layer was achieved using 3 regenerations of 10 mM Glycine pH 1.7. Results obtained from single-cycle kinetics were evaluated by Biacore 8K evaluation software with 1:1 binding homogenous Langmuir model with a preceeding buffer injection as a blank subtraction. The following kinetic parameters were obtained: on-rate (ka), off-rate (kd), affinity constant (KD, ratio of kd by ka), maximum response (Rmax), and goodness of fit (Chi2).
Consider B5, for which the “fold slower dissociation rate (Kd) from fibrillar than from monomeric alpha-synuclein” value (from here on “fold slower dissociation rate (Kd)”) was no less than 100 fold.

Take B6: the “fold slower dissociation rate (Kd)” value was no less than 100 fold.

Consider B7, for which the “fold slower dissociation rate (Kd)” value is no less than 100 fold.

The target of another assay is T2, alpha-synuclein fibrils. Kind of assay: SPR, captured bAb; head says nM, kd/ka gives M. How it is done: (§2) Any non-covalently bound antibodies were removed by three successive regenerations of 10 mM Glycine pH 1.7 (GE Healthcare, 28-9950-84). Immobilization levels were evaluated following ethanolamine capping (Bound) and finally following regeneration (Final). Non-covalent immobilization of alpha-synuclein biparatopic antibodies on flow cell 2 of channels 1-8 was performed at a final concentration of 5 μg/mL, diluted in 10 mM sodium acetate pH 5.5 (GE Healthcare, BR-1003-52). Non-covalent immobilization of an isotype control antibody on flow cell 1 of channels 1-8 was performed at a final concentration of 5 μg/mL, diluted in 10 mM sodium acetate pH 5.5 (GE Healthcare, BR-1003-52).
as §1
(§3) Kinetic constants were determined from 1:1 homogenous binding models for all cases.
In turn, B5 yielded an equilibrium dissociation constant (Kd) of 6.14 pM.

Take B6: the dissociation constant Kd amounted to 1.52 pM.

As to B7, the affinity, expressed as Kd, was 2.48 pM.

The next assay deals with T3, monomeric alpha-synuclein (UniProt P37840 1-140). As to the kind of experiment: SPR, captured bAb; head says nM, kd/ka gives M. Here is the method: as §2, §1, §3
Background: SPR reads the build-up and loss of mass on a sensor chip optically.
In the case of B5, the affinity, expressed as Kd, was 0.416 nM.

B6: the Kd is 1.17 nM.

B7: the Kd was determined as 1.14 nM.

A further assay concerns the target T1, alpha-synuclein seeds. As to the kind of experiment: cell-based or functional assay. This is another data set of the same source.
On to B8, for which the “IC50, percentage of de novo alpha-synuclein aggregates formed in cells after immunodepletion of seeds” value (“IC50, percentage” for short) came out at 8.6 nM.

For the molecule B9, the “IC50, percentage” value came out at 21.6 nM.

For the molecule B10, the “IC50, percentage” value worked out at 18 nM.

In the case of B11, the “IC50, percentage” value is 15.2 nM.

The target in another assay is T2, alpha-synuclein fibrils. As to the kind of experiment: SPR, captured bAb. The source holds these as a separate data set. Here is the method:
as §2, §1, §3
For the molecule B5, the koff came to 3.48e-07 s⁻¹ and the on-rate constant (kon) worked out at 56800 M⁻¹ s⁻¹.

Regarding B6, the dissociation rate constant (koff) was 7.84e-08 s⁻¹ and the association rate constant (kon) is 51700 M⁻¹ s⁻¹.

The molecule B7 yielded a koff of 1.53e-07 s⁻¹ and an on-rate (kon) of 61600 M⁻¹ s⁻¹.

The next assay has as its target T3, monomeric alpha-synuclein. Kind of assay: SPR, captured bAb. How it is done: as §2, §1, §3
B5 registered a koff of 0.000514 s⁻¹ and an on-rate constant (kon) of 1.23e+06 M⁻¹ s⁻¹.

B6 displayed a koff of 0.00103 s⁻¹ and a kon of 884000 M⁻¹ s⁻¹.

B7 showed an off-rate constant (koff) of 0.00025 s⁻¹ and an association rate constant (kon) of 220000 M⁻¹ s⁻¹.

(Values after US20250340623A1 (AC IMMUNE, published 2025).)
